The supplement of paper PMC10724198
± gives the standard deviation of the averaged measurements.

How the values were obtained:
Saccharomyces cerevisiae [1] = assay: protein stability index of tFT-peptide fusion (C-terminal peptide) (PSI (0-1 scale)); higher = more stable (slower turnover)
Experimental: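 MPS profiling in S. cerevisiae of the tFT-X12 degron library: putative degron peptides plus stable controls, 12 aa, fused to the C-terminus of a sfGFP-mCherry timer. Cells are FACS-sorted into 8 mCherry/sfGFP bins and deep-sequenced. PSI runs from 0 (unstable) to 1 (stable). Backgrounds are wild type, das1Δ and doa10Δ at 30 °C, and wild type, das1Δ, cdc34-1 and cdc53-1 at 37 °C; 2-3 technical replicates each.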

Saccharomyces cerevisiae [2] = assay: as above; conditions: genetic background: wild type; temperature: 30 C
[3] = genetic background: cdc34-1, temperature: 37 C
[4] = genetic background: cdc53-1, temperature: 37 C
[5] = genetic background: das1 deletion, temperature: 30 C
[6] = genetic background: das1 deletion, temperature: 37 C
[7] = genetic background: doa10 deletion, temperature: 30 C
[8] = genetic background: wild type, temperature: 30 C
[9] = genetic background: wild type, temperature: 37 C
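Further: PSI is a weighted mean of sequencing reads over stability bins, variants kept only with over 10 reads, mCherry proximal and sfGFP distal, peptide attached via GGGS linker.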

Sequence | protein stability index (Saccharomyces cerevisiae [1]; [3]) | protein stability index (Saccharomyces cerevisiae [1]; [4]) | protein stability index (Saccharomyces cerevisiae [1]; [5]) | protein stability index (Saccharomyces cerevisiae [1]; [6]) | protein stability index (Saccharomyces cerevisiae [1]; [7]) | protein stability index (Saccharomyces cerevisiae [1]; [8]) | protein stability index (Saccharomyces cerevisiae [1]; [9]) | protein stability index (Saccharomyces cerevisiae [2])
FWYIRIRLAVVA | 0.0797 ± 0.027 | 0.175 ± 0.029 | 0.0867 ± 0.013 | 0.179 ± 0.006 | 0.0283 ± 0.0015 | 0.0257 ± 0.0096 | 0.0826 ± 0.01 | 0.0536 ± 0.019
PSTLVITVVITK | 0.247 ± 0.019 | 0.29 ± 0.0099 | 0.279 ± 0.029 | 0.4255 ± 0.0021 | 0.23 ± 0.023 | 0.243 ± 0.03 | 0.389 ± 0.02 | 0.37 ± 0.038
SRCLALVICYRV | 0.539 ± 0.041 | 0.582 ± 0.031 | 0.439 ± 0.021 | 0.5979 ± 0.0043 | 0.152 ± 0.016 | 0.185 ± 0.024 | 0.3 ± 0.0041 | 0.265 ± 0.011
LLVFWRLWWSLS | 0.248 ± 0.035 | 0.334 ± 0.011 | 0.251 ± 0.034 | 0.429 ± 0.028 | 0.081 ± 0.026 | 0.0903 ± 0.018 | 0.128 ± 0.007 | 0.157 ± 0.0075
CSLRLCVRGAIV | 0.667 ± 0.022 | 0.702 ± 0.021 | 0.602 ± 0.01 | 0.71597 ± 0.00049 | 0.586 ± 0.022 | 0.606 ± 0.0057 | 0.675 ± 0.024 | 0.0268 ± 0.022
WLSISNLVIACR | 0.0277 ± 0.009 | 0.0619 ± 0.027 | 0.135 ± 0.039 | 0.156 ± 0.013 | 0.0862 ± 0.019 | 0.115 ± 0.025 | 0.127 ± 0.017 | 0.217 ± 0.013
LVSWAWIWIFVF | 0.251 ± 0.057 | 0.354 ± 0.022 | 0.253 ± 0.039 | 0.417 ± 0.0085 | 0.171 ± 0.0065 | 0.194 ± 0.022 | 0.32239 ± 2.4e-05 | 0.226 ± 0.054
LQSVAFERGGPD | 0.687 ± 0.017 | 0.736 ± 0.0092 | 0.649 ± 0.0084 | 0.729 ± 0.015 | 0.647 ± 0.026 | 0.661 ± 0.0084 | 0.7194 ± 0.0071 | 0.727 ± 0.018
SIPVWTIELFAT | 0.555 ± 0.022 | 0.627 ± 0.012 | 0.428 ± 0.026 | 0.6153 ± 0.0042 | 0.335 ± 0.022 | 0.368 ± 0.035 | 0.537 ± 0.039 | 0.469 ± 0.037
GRCGGPRSLGVG | 0.562 ± 0.036 | 0.589 ± 0.022 | 0.52 ± 0.022 | 0.5989 ± 0.001 | 0.5493 ± 0.0022 | 0.538 ± 0.012 | 0.5853 ± 0.0057 | 0.547 ± 0.07
GLLVFRCINLRC | 0.449 ± 0.013 | 0.47 ± 0.0085 | 0.429 ± 0.045 | 0.5558 ± 0.005 | 0.421 ± 0.021 | 0.357 ± 0.03 | 0.471 ± 0.017 | 0.357 ± 0.038
FPTLVRKFINAI | 0.448 ± 0.024 | 0.629 ± 0.052 | 0.56 ± 0.016 | 0.6825 ± 0.0019 | 0.0802 ± 0.011 | 0.0817 ± 0.014 | 0.123 ± 0.018 | 0.13 ± 0.0092
ACALRSLPPRPY | 0.69 ± 0.035 | 0.7529 ± 0.0042 | 0.65 ± 0.024 | 0.746 ± 0.024 | 0.68 ± 0.019 | 0.649 ± 0.021 | 0.712 ± 0.017 | 0.188 ± 0.064
LRSVVFFCRTLL | 0.677 ± 0.045 | 0.7436 ± 0.0044 | 0.623 ± 0.014 | 0.731 ± 0.013 | 0.3373 ± 0.0013 | 0.362 ± 0.015 | 0.566 ± 0.017 | 0.5 ± 0.0099
LFFFFLPHLILL | 0.3403 ± 0.00055 | 0.321 ± 0.041 | 0.321 ± 0.046 | 0.4803 ± 0.004 | 0.404 ± 0.058 | 0.26 ± 0.028 | 0.395 ± 0.011 | 0.377 ± 0.035
HLYCYNILLVSG | 0.2001 ± 0.00066 | – | 0.306 ± 0.04 | 0.419 ± 0.007 | 0.201 ± 0.018 | 0.254 ± 0.015 | 0.375 ± 0.038 | 0.286 ± 0.042

Sequence | protein stability index (Saccharomyces cerevisiae [1]; [3]) | protein stability index (Saccharomyces cerevisiae [1]; [4]) | protein stability index (Saccharomyces cerevisiae [1]; [5]) | protein stability index (Saccharomyces cerevisiae [1]; [6]) | protein stability index (Saccharomyces cerevisiae [1]; [7]) | protein stability index (Saccharomyces cerevisiae [1]; [8]) | protein stability index (Saccharomyces cerevisiae [1]; [9]) | protein stability index (Saccharomyces cerevisiae [2])
HCLLQDVPPTLH | 0.641 ± 0.026 | 0.6925 ± 0.0062 | 0.711 ± 0.051 | 0.678 ± 0.014 | 0.703 ± 0.021 | 0.702 ± 0.015 | 0.66 ± 0.02 | 0.734 ± 0.031
ASGVFSRLVLVS | 0.323 ± 0.0038 | 0.335 ± 0.016 | 0.284 ± 0.03 | 0.4576 ± 0.0023 | 0.173 ± 0.012 | 0.201 ± 0.024 | 0.282 ± 0.0035 | 0.3097 ± 0.0016
VACLRLTVYVMG | 0.0455 ± 0.0053 | 0.0789 ± 0.015 | 0.128 ± 0.025 | 0.231 ± 0.0037 | 0.101 ± 0.009 | 0.124 ± 0.03 | 0.204 ± 0.016 | 0.193 ± 0.028
RWRDGVAWVVVC | 0.254 ± 0.011 | 0.314 ± 0.024 | 0.289 ± 0.032 | 0.452 ± 0.0084 | 0.0897 ± 0.019 | 0.098 ± 0.0042 | 0.0954 ± 0.0098 | 0.143 ± 0.025
FLFFLFVVFVFV | 0.256 ± 0.041 | 0.35 ± 0.046 | 0.305 ± 0.022 | 0.379 ± 0.0046 | 0.323 ± 0.015 | 0.286 ± 0.013 | 0.3692 ± 0.0023 | 0.41 ± 0.07
LPSPLLFLPALF | 0.708 ± 0.017 | 0.7877 ± 0.0075 | 0.667 ± 0.025 | 0.778 ± 0.055 | 0.405 ± 0.011 | 0.436 ± 0.011 | 0.614 ± 0.017 | 0.466 ± 0.014
VDFCLLFLLLLV | 0.427 ± 0.041 | 0.442 ± 0.0072 | 0.349 ± 0.034 | 0.482 ± 0.032 | 0.425 ± 0.027 | 0.331 ± 0.02 | 0.462 ± 0.014 | 0.432 ± 0.025
ISSYKFLRIVLV | 0.384 ± 0.01 | 0.435 ± 0.0053 | 0.335 ± 0.026 | 0.509 ± 0.022 | 0.131 ± 0.031 | 0.149 ± 0.032 | 0.191 ± 0.0035 | 0.189 ± 0.0046
FFFFLVPVHCVI | 0.261 ± 0.029 | 0.371 ± 0.028 | 0.261 ± 0.035 | 0.452 ± 0.021 | 0.239 ± 0.023 | 0.249 ± 0.024 | 0.406 ± 0.018 | 0.358 ± 0.02
FYIWFFRLIYFF | 0.421 ± 0.043 | 0.4414 ± 0.0014 | 0.402 ± 0.039 | 0.536 ± 0.019 | 0.344 ± 0.0048 | 0.331 ± 0.01 | 0.453 ± 0.012 | 0.408 ± 0.014
YTPPISRLLIFT | 0.528 ± 0.031 | 0.532 ± 0.0094 | 0.39 ± 0.035 | 0.564 ± 0.016 | 0.353 ± 0.019 | 0.364 ± 0.052 | 0.494 ± 0.022 | 0.497 ± 0.097
GGYVTVTSVTVV | 0.587 ± 0.051 | 0.62 ± 0.02 | 0.501 ± 0.025 | 0.605 ± 0.019 | 0.499 ± 0.035 | 0.506 ± 0.011 | 0.611 ± 0.015 | 0.468 ± 0.039
RWCLWGTRVWVS | 0.439 ± 0.04 | 0.522 ± 0.037 | 0.444 ± 0.021 | 0.591 ± 0.029 | 0.103 ± 0.0031 | 0.111 ± 0.022 | 0.153 ± 0.03 | 0.147 ± 0.028
LVLGLYGVWLVV | 0.262 ± 0.005 | 0.179 ± 0.022 | 0.254 ± 0.026 | 0.4104 ± 0.0027 | 0.355 ± 0.015 | 0.243 ± 0.024 | 0.3561 ± 0.0035 | 0.345 ± 0.015
EWRPYKRNKQSS | 0.63 ± 0.011 | 0.759 ± 0.053 | 0.638 ± 0.028 | 0.755 ± 0.023 | 0.223 ± 0.016 | 0.211 ± 0.028 | 0.4112 ± 0.0037 | 0.353 ± 0.13
RIKVTRRIIIYA | 0.335 ± 0.036 | 0.383 ± 0.07 | 0.239 ± 0.054 | 0.446 ± 0.014 | 0.14 ± 0.0072 | 0.179 ± 0.022 | 0.302 ± 0.018 | 0.299 ± 0.011
